Data taken from paper PMC5862501, “Lung macrophage scavenger receptor SR-A6 (MARCO) is an adenovirus type-specific virus entry receptor” (PLoS Pathogens, 2018).

What was measured:
[1] = target: mouse SR-A6 expressed in L-929 cells (mouse) (UniProt Q60754); assay: binding of fluorophore-labelled virions to cells, confocal microscopy; Alexa-Fluor488-labelled HAdV-C5 bound at 4°C to L-929 cells transfected with mouse SR-A6-IRES-Tomato; Tomato-positive against Tomato-negative cells
[2] = target: the molecule itself; assay: non-reducing SDS-PAGE; purified soluble mSR-A6; monomers and trimers

Molecule: human adenovirus type C5 (HAdV-C5) virion (complex)
- fold, mean cell-associated virus number in Tomato-positive over Tomato-negative cells [1]: 7 fold

B1: soluble mouse SR-A6 (entire extracellular part) (domain or fragment)
chain: QVLNLQEQLQMLEMCCGNGSLAIEDKPFFSLQWAPKTHLVPRAQGLQALQAQLSWVHTSQEQLRQQFNNLTQNPELFQIKGERGSPGPKGAPGAPGIPGLPGPAAEKGEKGAAGRDGTPGVQGPQGPPGSKGEAGLQGLTGAPGKQGATGAPGPRGEKGSKGDIGLTGPKGEHGTKGDKGDLGLPGNKGDMGMKGDTGPMGSPGAQGGKGDAGKPGLPGLAGSPGVKGDQGKPGVQGVPGPQGAPGLSGAKGEPGRTGLPGPAGPPGIAGNPGIAGVKGSKGDTGIQGQKGTKGESGVPGLVGRKGDTGSPGLAGPKGEPGRVGQKGDPGMKGSSGQQGQKGEKGQKGESFQRVRIMGGTNRGRAEVYYNNEWGTICDDDWDNNDATVFCRMLGYSRGRALSSYGGGSGNIWLDNVNCRGTENSLWDCSKNSWGNHNCVHNEDAGVECS
notes: SR-A6 (MARCO), mouse, the entire extracellular part; Largely monomeric with a small amount of trimers (15-20%) in non-reducing SDS-PAGE; also called mSR-A6 soluble; soluble SR-A6
- stoichiometry N [2]: 3
